According to US8354508B2:

Target: T1, Boc-QAR-AMC
T1 sequence (peptide, N-terminal Boc; C-terminal AMC): QAR

fluorescence of cleaved Boc-QAR-AMC (370 nm excitation, 450 nm emission), cell-based protease assay: 3 times
Substance: human Pro115 on cells (enzyme)
